The supplement of paper PMC12042874
± gives the uncertainty stated by the source.

Experiment: amyloid nucleation score (Sup35N fusion, yeast selection) (log enrichment); library NNK1; higher = more nucleation; inactive = no reads after selection
Summary of the method: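 For the nucleation score, DiMSum gave the log enrichment of output over input reads, centred on the mode score of non-aggregating sequences. Psi-negative yeast expressing Sup35N fused to peptides of 20 random codons were induced with 100 μM copper sulfate for 24 hours and grown 7 days at 30°C on medium lacking adenine and uracil. Input and output plasmid inserts were Illumina-sequenced, and sequences with under 100 input reads were excluded.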

Substance: TGTHDVVVAVGYR
- amyloid nucleation score: -0.658 ± 0.54

Substance: LRRSTFASVDLRRADFIKLF
- amyloid nucleation score: 0.165 ± 0.69

Substance: IKHFGISTR
- amyloid nucleation score: 0.17 ± 0.79

Substance: RIIITLH
- amyloid nucleation score: 0.264 ± 0.31

Substance: TQEVLLFPGGCYNPFAFGWS
- amyloid nucleation score: -0.647 ± 0.75

Substance: VVTEKGLPWARQW
- amyloid nucleation score: -0.205 ± 0.33

Substance: GESKHKQSNECTQCC
- amyloid nucleation score: 1.11 ± 0.37

Substance: CCRGCPERLLSWGGSPRATE
- amyloid nucleation score: -0.334 ± 0.39

Substance: CTARLIA
- amyloid nucleation score: 0.13 ± 0.28

Substance: MFVNPALLLFL
- amyloid nucleation score: 0.226 ± 1.6

Substance: TTFFSGIYKKASLFYRHFVL
- amyloid nucleation score: -0.812 ± 0.28

Substance: TRMLLMIL
- amyloid nucleation score: -0.921 ± 2.4

Substance: PSGCFVWEML
- amyloid nucleation score: inactive

Substance: SEFASLERSHSHLYMWEFSL
- amyloid nucleation score: 0.171 ± 0.63

Substance: LECYEVYRYRKCLCCIVCVC
- amyloid nucleation score: 0.633 ± 0.42

Substance: FYCMLSSSSNFPSGNDRAYD
- amyloid nucleation score: -0.341 ± 0.5

Substance: LYTNSLRF
- amyloid nucleation score: -0.419 ± 0.64

Substance: YMEKWAWRVVNESCASVVPP
- amyloid nucleation score: -0.272 ± 0.89

Substance: VEIGFFQRHKARIFMGTRSL
- amyloid nucleation score: -0.209 ± 0.34

Substance: TWSRAQM
- amyloid nucleation score: inactive

Substance: ELLMERMRQLVFPPIIYRLN
- amyloid nucleation score: 0.44 ± 0.62

Substance: MAGYL
- amyloid nucleation score: -0.078 ± 0.48

Substance: NVQGSHSCSISCYIMPGRAM
- amyloid nucleation score: 5.56 ± 0.077

Substance: SVLDFNNYMEIVAQVKGEDP
- amyloid nucleation score: inactive

Substance: TRFMMRVRIVSDCDTVNFAC
- amyloid nucleation score: -0.379 ± 0.62

Substance: GYILPLLDVDYVKSVMICFW
- amyloid nucleation score: 3.8 ± 0.094

Substance: TRWCEWRYRSPDRYASLTGF
- amyloid nucleation score: -0.06 ± 0.43

Substance: CMNSMC
- amyloid nucleation score: 0.066 ± 0.66

Substance: AIASVLAN
- amyloid nucleation score: -0.482 ± 0.3

Substance: IGNPMWCQWSAL
- amyloid nucleation score: 0.721 ± 0.74

Substance: GIVGSG
- amyloid nucleation score: 2.29 ± 0.29

Substance: IGLVCCCSSFEFMRWY
- amyloid nucleation score: 2.49 ± 0.47

Substance: RPTGLDILS
- amyloid nucleation score: 3.56 ± 0.1

Substance: LTSRNYESIY
- amyloid nucleation score: -0.159 ± 0.24

Substance: YDWAVSAS
- amyloid nucleation score: -0.364 ± 0.61

Substance: CGNLVCCNIMTDKNGY
- amyloid nucleation score: 7.886 ± 0.055

Substance: VGFVLFLANSERYCDRISFG
- amyloid nucleation score: -0.13 ± 0.97

Substance: LHAGHSSLNALAYSFRLHDR
- amyloid nucleation score: 0.775 ± 0.52

Substance: FFWRHLESGMGFHKACSHGG
- amyloid nucleation score: 0.005 ± 1.7

Substance: PNYEVDCDMFYSSFVGGFRV
- amyloid nucleation score: 0.173 ± 1.4

Substance: GLPVGQGGELDY
- amyloid nucleation score: 2.32 ± 0.14

Substance: FKSVGLTWALRGRINKTYLE
- amyloid nucleation score: 0.195 ± 0.21

Substance: PFNMVWMRKYHLRSR
- amyloid nucleation score: -0.378 ± 0.34

Substance: HFVASDYHNVGSA
- amyloid nucleation score: inactive

Substance: RCGSPSAHNSIYMR
- amyloid nucleation score: 1.34 ± 0.32

Substance: SHDFVVIISNCR
- amyloid nucleation score: 5.57 ± 0.093

Substance: LVALDNAENFRSRKQWIGIR
- amyloid nucleation score: -0.599 ± 1.2

Substance: LHAYTLSYGLLVLSARSHEL
- amyloid nucleation score: -0.01 ± 0.67

Substance: NMTPFGYIHFTL
- amyloid nucleation score: 0.644 ± 1

Substance: YPWIFCFEILHYYQLVRLWG
- amyloid nucleation score: -1.13 ± 0.55

Substance: MQVVKIGKLFG
- amyloid nucleation score: -0.112 ± 0.39

Substance: LERYVSMRFSWWDSSKKNTW
- amyloid nucleation score: 4.18 ± 0.086

Substance: LRYFDLVATNHDNMIYDQYL
- amyloid nucleation score: -0.177 ± 0.68

Substance: HLSWLRINLPGSPHPPMSLP
- amyloid nucleation score: 3.57 ± 0.11

Substance: CRFMNVRYGKRMKVDNTVMA
- amyloid nucleation score: -0.891 ± 1.4

Substance: VGRSQRMQKTLKVSVWYWIN
- amyloid nucleation score: 0.117 ± 0.7

Substance: CSTTLEVTVGMAVVMLLQGI
- amyloid nucleation score: 2.66 ± 0.086

Substance: LGSVDIRAQCLVNMNMLLSS
- amyloid nucleation score: 0.308 ± 0.43

Substance: KDNLYWKDLSVCLRRFVGLH
- amyloid nucleation score: inactive

Substance: RTTFA
- amyloid nucleation score: 0.38 ± 0.33

Substance: CLSRLLVLKYLSTWSKKWVW
- amyloid nucleation score: -0.115 ± 0.25

Substance: QVTRYYGGNAVR
- amyloid nucleation score: 1.59 ± 0.57

Substance: FAKLYLKSISVLLMHTDWVF
- amyloid nucleation score: 0.684 ± 0.62

Substance: SLGKLYAGDGVCMGTLPDSK
- amyloid nucleation score: 0.017 ± 0.56

Substance: TGFGKKRATGWVAWGWEKLL
- amyloid nucleation score: -0.468 ± 0.32

Substance: NFRWILSSAMDAIFPYVAFV
- amyloid nucleation score: 1.52 ± 0.78

Substance: SMAFGCWSVGWYRGMMSVCQ
- amyloid nucleation score: 1.16 ± 0.6

Substance: EWGNRRVFYVVMDGSRCPAS
- amyloid nucleation score: 0.1 ± 0.16

Substance: NTYGAGSLGITWQQVCLTYE
- amyloid nucleation score: 0.767 ± 0.62

Substance: YSYAGSLMAWSRKVHMHTEV
- amyloid nucleation score: -0.19 ± 0.57

Substance: SCNCHWY
- amyloid nucleation score: 1.49 ± 0.74

Substance: DMTAVYLFVTVYSYDLSC
- amyloid nucleation score: 0.569 ± 0.14

Substance: LALLWDMPF
- amyloid nucleation score: -2.19 ± 2.7

Substance: VFGLLPVSSCIVRNRRDLRN
- amyloid nucleation score: -0.371 ± 0.27

Substance: LCEVRDCWVL
- amyloid nucleation score: 0.783 ± 0.41

Substance: WSLWARWSFRHRCQRMHLLL
- amyloid nucleation score: 0.174 ± 0.4

Substance: KVLNFNLSRACLLWDSFNSV
- amyloid nucleation score: 2.65 ± 0.19

Substance: RSSVVWLWSHYC
- amyloid nucleation score: 0.588 ± 0.56

Substance: NGLFAYVRM
- amyloid nucleation score: 0.505 ± 0.27

Substance: CWDGRQIWVILVIVLIRINA
- amyloid nucleation score: -0.466 ± 0.91

Substance: LSVIFTLSFLTAIFAVGIWS
- amyloid nucleation score: 0.301 ± 0.23

Substance: LSSGSKYFSKVVDASLVCAC
- amyloid nucleation score: 0.377 ± 0.77

Substance: VVLEHVDYHS
- amyloid nucleation score: 0.822 ± 0.52

Substance: IVTALEGYRDYFSEPCIFFM
- amyloid nucleation score: -0.176 ± 0.32

Substance: LFIDVSR
- amyloid nucleation score: -0.021 ± 1.6

Substance: RPGVNLWVLFVTMQTPEIRL
- amyloid nucleation score: 3.01 ± 0.11

Substance: RLCAINHPLCTFSQTMAWVH
- amyloid nucleation score: 0.272 ± 0.29

Substance: WATLALSR
- amyloid nucleation score: 0.5 ± 0.4

Substance: TFKYFDSLTLPDLYIVVHGS
- amyloid nucleation score: 0.037 ± 0.2

Substance: LRVNIPVTQSSTVIHY
- amyloid nucleation score: 0.91 ± 0.39

Substance: SKSRLL
- amyloid nucleation score: 0.006 ± 0.4

Substance: FVRGDKLRTTGELSSAINRS
- amyloid nucleation score: -0.608 ± 0.57

Substance: SGNMNSLYWKSQKCNSYSFP
- amyloid nucleation score: 0.935 ± 1.1

Substance: AIYVRW
- amyloid nucleation score: 1.08 ± 0.22

Substance: ACTSLASFHYVLHPKYSCRV
- amyloid nucleation score: 1.2 ± 0.76

Substance: PTETVMMRRIFGSRGPWYAV
- amyloid nucleation score: 0.286 ± 1.4

Substance: TYLFSTVGVSGSSMSQVYIV
- amyloid nucleation score: -0.387 ± 0.46

Substance: ANALDCINDWDKSSQSCQGP
- amyloid nucleation score: 0.812 ± 0.53

Substance: PFVDVTRHRNSPS
- amyloid nucleation score: 1.01 ± 1

Substance: SQRTWCLLGIGSTITRIHFG
- amyloid nucleation score: 2.74 ± 0.23

Substance: SGSLGS
- amyloid nucleation score: 0.386 ± 0.84

Substance: DRFGWF
- amyloid nucleation score: -0.148 ± 0.32

Substance: ISWFRCLEVWPSYGIPDWKN
- amyloid nucleation score: -0.467 ± 0.28

Substance: LSALFLVPHYLDMVNLHSWR
- amyloid nucleation score: -0.254 ± 0.44

Substance: VAFNICSENRLVNFR
- amyloid nucleation score: -0.577 ± 0.4

Substance: YTSDKGKLYCGLMMG
- amyloid nucleation score: -0.045 ± 0.59

Substance: YTGKRKT
- amyloid nucleation score: -0.5 ± 0.46

Substance: LEGVFAAALSNKMIRYIRDV
- amyloid nucleation score: 1.19 ± 0.53

Substance: FVMFMPFSSHFS
- amyloid nucleation score: 0.848 ± 0.58

Substance: NCPFEW
- amyloid nucleation score: -0.116 ± 0.55

Substance: RFYIGIVIQRTYGRC
- amyloid nucleation score: 2.79 ± 0.071

Substance: NTSVLLTVLVG
- amyloid nucleation score: 0.822 ± 0.46

Substance: YFCFFSRMFTVEF
- amyloid nucleation score: 2.12 ± 0.64

Substance: RRGVYSKVFAENHVLCMLSL
- amyloid nucleation score: 4.01 ± 0.067

Substance: RQQMTRTCVNDGS
- amyloid nucleation score: -1.02 ± 2.4

Substance: HRSKS
- amyloid nucleation score: -0.087 ± 0.32

Substance: KSSNLVYVHTAHQRGYYCNQ
- amyloid nucleation score: 0.3 ± 0.41

Substance: NDSDARYHVFRK
- amyloid nucleation score: -0.256 ± 1.2

Substance: YTFLYSPTHCPRENHPNSVL
- amyloid nucleation score: 0.211 ± 0.61

Substance: LWVNTDSSLECHRWLRVIV
- amyloid nucleation score: 1.2 ± 0.37

Substance: TSGWCSRLQIIGLYLNVLVC
- amyloid nucleation score: 5.47 ± 0.06

Substance: TYERICGCMFCLTCSSDAF
- amyloid nucleation score: -0.19 ± 0.71

Substance: TSMLSGSWSRPDPLTDSSGD
- amyloid nucleation score: 0.517 ± 0.47

Substance: SINVVLAINGTAHCNFSASL
- amyloid nucleation score: 4.66 ± 0.067

Substance: WGCDLEAALY
- amyloid nucleation score: 0.016 ± 1.7

Substance: YYDFGIIRSCVFSNGCVGMY
- amyloid nucleation score: 1.62 ± 0.8

Substance: ILRSGNVCYHNTVRWVLSYR
- amyloid nucleation score: 0.225 ± 0.21

Substance: QCMARVSQFFWFMLTWK
- amyloid nucleation score: 0.748 ± 0.27

Substance: CHELLALDLLSMRNS
- amyloid nucleation score: 0.416 ± 0.55

Substance: RSMYSQCVLIMGAPTRISGL
- amyloid nucleation score: 6.295 ± 0.054
